Measurements from patent US20030190342A1.

Legend:
[1] = biological target: calf skin collagen (calf); assay: cell-based or functional assay
[2] = biological target: collagen (platelet aggregation agonist, 0.5 µg ml^-1); assay: cell-based or functional assay
[3] = biological target: human collagen type III (human) (UniProt P02461); assay: SPR (BIAcore 3000), immobilised human collagen type III, Scatchard analysis of plateau RU; low affinity site
[4] = biological target: human collagen type III (human) (UniProt P02461); assay: SPR (BIAcore 3000), immobilised human collagen type III, Scatchard analysis of plateau RU; high affinity site
[5] = biological target: calf skin collagen (calf); assay: microtiter plate competition: inhibition of binding of vWF in diluted human plasma to coated calf skin collagen
[6] = biological target: calf skin collagen (calf); assay: microtiter plate competition: inhibition of binding of vWF in diluted murine plasma to coated calf skin collagen
[7] = biological target: calf skin collagen (calf); assay: microtiter plate competition: inhibition of binding of vWF in diluted hamster plasma to coated calf skin collagen
[8] = biological target: calf skin collagen (calf); assay: microtiter plate competition: inhibition of binding of vWF in diluted porcine plasma to coated calf skin collagen
[9] = biological target: human collagen type I (human) (UniProt P02452); assay: microtiter plate competition: inhibition of binding of vWF in diluted human plasma to coated human collagen type I
UniProt P02452, sequence (P02452 162-1218, chain 1 of 2): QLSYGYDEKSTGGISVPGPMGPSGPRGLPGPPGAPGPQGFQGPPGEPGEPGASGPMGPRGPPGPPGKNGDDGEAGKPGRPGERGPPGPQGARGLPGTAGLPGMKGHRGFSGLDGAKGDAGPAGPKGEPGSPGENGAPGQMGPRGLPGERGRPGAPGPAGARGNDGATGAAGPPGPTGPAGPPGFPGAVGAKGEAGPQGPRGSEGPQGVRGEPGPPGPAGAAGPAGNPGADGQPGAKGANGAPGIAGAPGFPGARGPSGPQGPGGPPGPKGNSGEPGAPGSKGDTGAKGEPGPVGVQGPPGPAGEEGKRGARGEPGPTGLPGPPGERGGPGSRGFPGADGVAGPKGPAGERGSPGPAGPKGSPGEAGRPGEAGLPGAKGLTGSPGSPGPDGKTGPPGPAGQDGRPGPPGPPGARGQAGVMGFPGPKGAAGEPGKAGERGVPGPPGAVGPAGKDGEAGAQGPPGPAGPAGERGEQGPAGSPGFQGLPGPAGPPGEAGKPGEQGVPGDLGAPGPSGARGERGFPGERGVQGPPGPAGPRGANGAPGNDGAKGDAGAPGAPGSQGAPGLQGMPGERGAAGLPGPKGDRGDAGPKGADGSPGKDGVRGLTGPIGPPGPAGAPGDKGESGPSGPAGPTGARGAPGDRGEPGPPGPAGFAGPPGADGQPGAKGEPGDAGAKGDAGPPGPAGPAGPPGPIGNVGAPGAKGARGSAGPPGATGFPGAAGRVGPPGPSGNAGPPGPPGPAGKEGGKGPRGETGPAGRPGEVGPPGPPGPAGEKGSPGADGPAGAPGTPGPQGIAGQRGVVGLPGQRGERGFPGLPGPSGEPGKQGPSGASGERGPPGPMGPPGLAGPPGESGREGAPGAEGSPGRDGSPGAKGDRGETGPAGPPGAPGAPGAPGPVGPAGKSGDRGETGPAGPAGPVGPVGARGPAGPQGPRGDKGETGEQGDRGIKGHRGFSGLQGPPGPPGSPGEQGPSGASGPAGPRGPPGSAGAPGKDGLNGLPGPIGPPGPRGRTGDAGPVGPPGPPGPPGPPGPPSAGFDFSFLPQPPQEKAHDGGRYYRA
UniProt P02452, sequence (P08123 80-1119, chain 2 of 2, further chain): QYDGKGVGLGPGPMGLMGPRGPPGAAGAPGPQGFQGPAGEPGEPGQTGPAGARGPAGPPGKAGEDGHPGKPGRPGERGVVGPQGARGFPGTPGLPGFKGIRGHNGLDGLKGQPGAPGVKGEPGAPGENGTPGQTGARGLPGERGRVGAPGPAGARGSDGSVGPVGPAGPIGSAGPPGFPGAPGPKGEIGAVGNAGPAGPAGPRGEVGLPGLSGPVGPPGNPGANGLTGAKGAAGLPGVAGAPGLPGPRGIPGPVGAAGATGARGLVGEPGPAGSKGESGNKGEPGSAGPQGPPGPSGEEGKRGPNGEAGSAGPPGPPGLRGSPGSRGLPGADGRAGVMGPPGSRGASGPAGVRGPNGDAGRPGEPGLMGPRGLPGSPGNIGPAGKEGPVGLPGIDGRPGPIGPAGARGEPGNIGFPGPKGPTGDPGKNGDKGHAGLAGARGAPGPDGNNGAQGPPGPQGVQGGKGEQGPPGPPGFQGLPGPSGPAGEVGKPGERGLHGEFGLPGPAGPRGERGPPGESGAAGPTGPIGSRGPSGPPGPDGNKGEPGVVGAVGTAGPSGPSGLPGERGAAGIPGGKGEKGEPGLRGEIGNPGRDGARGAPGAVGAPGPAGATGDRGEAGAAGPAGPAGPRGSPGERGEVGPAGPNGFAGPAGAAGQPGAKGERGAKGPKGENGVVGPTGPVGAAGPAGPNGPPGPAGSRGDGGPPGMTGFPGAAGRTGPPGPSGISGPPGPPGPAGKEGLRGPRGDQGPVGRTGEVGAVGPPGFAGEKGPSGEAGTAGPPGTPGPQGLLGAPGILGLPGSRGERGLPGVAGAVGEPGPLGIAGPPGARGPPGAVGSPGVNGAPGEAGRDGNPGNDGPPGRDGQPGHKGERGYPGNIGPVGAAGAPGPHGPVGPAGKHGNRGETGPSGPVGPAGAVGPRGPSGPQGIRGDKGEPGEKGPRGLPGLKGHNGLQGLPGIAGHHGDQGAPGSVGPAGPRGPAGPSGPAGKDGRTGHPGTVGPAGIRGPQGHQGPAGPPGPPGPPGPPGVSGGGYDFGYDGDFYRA

[10] = biological target: human collagen type I (human) (UniProt P02452); assay: microtiter plate competition: inhibition of binding of vWF in diluted murine plasma to coated human collagen type I
[11] = biological target: human collagen type I (human) (UniProt P02452); assay: microtiter plate competition: inhibition of binding of vWF in diluted hamster plasma to coated human collagen type I
[12] = biological target: human collagen type III (human) (UniProt P02461); assay: microtiter plate competition: inhibition of binding of vWF in diluted human plasma to coated human collagen type III
[13] = biological target: human collagen type I (human) (UniProt P02452); assay: microtiter plate competition: inhibition of binding of vWF in diluted porcine plasma to coated human collagen type I
[14] = biological target: human collagen type III (human) (UniProt P02461); assay: microtiter plate competition: inhibition of binding of vWF in diluted murine plasma to coated human collagen type III
[15] = biological target: human collagen type III (human) (UniProt P02461); assay: microtiter plate competition: inhibition of binding of vWF in diluted porcine plasma to coated human collagen type III
[16] = biological target: human collagen type I (human) (UniProt P02452); assay: microtiter plate competition: inhibition of purified human vWF binding to coated human collagen I; competitor purified human vWF, detected with anti-vWF-HRP
[17] = biological target: calf skin collagen (calf); assay: microtiter plate competition: inhibition of purified human vWF binding to coated calf skin collagen; competitor purified human vWF, detected with anti-vWF-HRP
[18] = biological target: human collagen type III (human) (UniProt P02461); assay: microtiter plate competition: inhibition of purified human vWF binding to coated human collagen III; competitor purified human vWF, detected with anti-vWF-HRP

calf skin collagen (calf), sequence (P02453 162-1217, chain 1 of 2): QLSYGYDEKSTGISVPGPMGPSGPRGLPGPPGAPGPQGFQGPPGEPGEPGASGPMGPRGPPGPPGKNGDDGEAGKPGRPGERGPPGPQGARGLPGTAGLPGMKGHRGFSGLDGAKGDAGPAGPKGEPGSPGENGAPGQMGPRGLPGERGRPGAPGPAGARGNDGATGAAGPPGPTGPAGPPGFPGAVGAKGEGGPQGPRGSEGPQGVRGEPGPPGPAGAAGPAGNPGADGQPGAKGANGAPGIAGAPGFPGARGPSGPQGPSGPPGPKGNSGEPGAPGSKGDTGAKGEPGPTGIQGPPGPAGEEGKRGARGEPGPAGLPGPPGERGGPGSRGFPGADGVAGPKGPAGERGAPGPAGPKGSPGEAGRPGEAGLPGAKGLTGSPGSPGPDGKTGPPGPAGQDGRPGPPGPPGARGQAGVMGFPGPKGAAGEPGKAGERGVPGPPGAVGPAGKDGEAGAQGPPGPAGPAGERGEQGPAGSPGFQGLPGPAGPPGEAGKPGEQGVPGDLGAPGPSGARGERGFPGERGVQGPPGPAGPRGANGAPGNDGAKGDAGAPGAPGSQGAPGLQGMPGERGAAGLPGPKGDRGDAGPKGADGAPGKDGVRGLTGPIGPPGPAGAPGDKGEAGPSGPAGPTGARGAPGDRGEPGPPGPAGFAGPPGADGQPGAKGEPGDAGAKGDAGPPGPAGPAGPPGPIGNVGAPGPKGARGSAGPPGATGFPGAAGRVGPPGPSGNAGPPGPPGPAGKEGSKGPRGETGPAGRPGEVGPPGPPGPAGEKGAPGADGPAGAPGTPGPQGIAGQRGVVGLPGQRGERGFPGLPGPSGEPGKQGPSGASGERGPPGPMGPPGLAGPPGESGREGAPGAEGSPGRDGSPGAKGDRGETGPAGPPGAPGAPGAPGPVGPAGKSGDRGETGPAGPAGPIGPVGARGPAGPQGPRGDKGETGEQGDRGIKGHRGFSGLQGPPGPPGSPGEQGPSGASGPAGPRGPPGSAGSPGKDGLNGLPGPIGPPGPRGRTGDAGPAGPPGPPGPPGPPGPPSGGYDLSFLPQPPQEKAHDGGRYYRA
calf skin collagen (calf), sequence (P02465 80-1117, chain 2 of 2, further chain): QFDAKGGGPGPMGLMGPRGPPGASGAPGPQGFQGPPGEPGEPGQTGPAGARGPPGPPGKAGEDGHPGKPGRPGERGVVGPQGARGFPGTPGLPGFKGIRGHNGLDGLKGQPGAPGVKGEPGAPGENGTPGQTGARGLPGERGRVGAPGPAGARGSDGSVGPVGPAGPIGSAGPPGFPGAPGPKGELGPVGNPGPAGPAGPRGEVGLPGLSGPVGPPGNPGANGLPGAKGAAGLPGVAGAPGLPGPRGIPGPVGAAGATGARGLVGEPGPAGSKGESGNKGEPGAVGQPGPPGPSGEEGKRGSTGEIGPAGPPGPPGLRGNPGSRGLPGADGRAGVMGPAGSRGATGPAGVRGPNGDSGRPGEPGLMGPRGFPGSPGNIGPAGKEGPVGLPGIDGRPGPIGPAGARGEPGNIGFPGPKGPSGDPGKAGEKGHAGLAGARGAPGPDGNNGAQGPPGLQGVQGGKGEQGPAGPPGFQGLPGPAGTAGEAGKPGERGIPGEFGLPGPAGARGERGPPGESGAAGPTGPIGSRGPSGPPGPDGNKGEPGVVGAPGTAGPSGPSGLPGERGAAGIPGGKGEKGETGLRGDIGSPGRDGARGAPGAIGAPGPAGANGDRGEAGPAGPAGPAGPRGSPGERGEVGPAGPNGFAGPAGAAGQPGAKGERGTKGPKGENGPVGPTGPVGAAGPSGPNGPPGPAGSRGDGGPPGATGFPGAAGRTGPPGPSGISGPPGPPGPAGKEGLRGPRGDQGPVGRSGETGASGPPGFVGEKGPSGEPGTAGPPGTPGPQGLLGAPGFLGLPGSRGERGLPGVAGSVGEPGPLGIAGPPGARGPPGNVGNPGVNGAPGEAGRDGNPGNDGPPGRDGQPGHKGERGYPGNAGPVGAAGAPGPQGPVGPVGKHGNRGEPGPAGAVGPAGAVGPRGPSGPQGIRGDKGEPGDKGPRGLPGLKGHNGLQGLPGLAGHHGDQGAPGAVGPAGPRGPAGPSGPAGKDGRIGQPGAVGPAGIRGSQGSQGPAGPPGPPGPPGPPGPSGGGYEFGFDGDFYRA

An IC50 of inhibition of platelet adhesion to collagen-coated coverslips, flow chamber, shear rate 1300 s^-1 [1] of 5.2 µg/mL, an IC50 of inhibition of platelet adhesion to collagen-coated coverslips, flow chamber, shear rate 2700 s^-1 [1] of 0.96 µg/mL and an inhibition of platelet adhesion to collagen-coated coverslips, flow chamber, shear rate 300 s^-1 [1] of over 10 µg/mL were found for Saratin in this work. The Aggregation (%) of platelet-rich plasma induced by collagen at 10 µg ml^-1 saratin [2] was 67%, the Aggregation (%) of platelet-rich plasma induced by collagen at 20 µg ml^-1 saratin [2] was 63% and the Aggregation (%) of platelet-rich plasma induced by collagen at 40 µg ml^-1 saratin [2] was 64%. The Aggregation (%) of platelet-rich plasma induced by collagen at 200 µg ml^-1 saratin [2] was 0%, the Kd [3] was 2 µM and the Kd [4] was 0.05 µM. For the same substance, the IC50 [5] was 0.3 µg/mL, the IC50 [6] was 0.3 µg/mL and the IC50 [7] was 7 µg/mL. For the same substance, the IC50 [8] was 0.5 µg/mL, the IC50 [9] was 0.2 µg/mL and the IC50 [10] was 0.1 µg/mL. The IC50 [11] was 0.4 µg/mL, the IC50 [12] was 0.9 µg/mL and the IC50 [13] was 0.2 µg/mL. For the same substance, the IC50 [14] was 0.6 µg/mL, the IC50 [15] was 0.5 µg/mL and the IC50 [16] was 0.23 µg/mL. It also gave an IC50 [17] of 0.44 µg/mL and an IC50 [18] of 0.81 µg/mL.
